Measurements as given in the domain aggregation screens of Martell et al. (2025).

Experiment: soluble fraction after stress (log2 fold change); higher = more stays soluble; pooled small domains, quantitative proteomics
Conditions: stress: pH 4
In short: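 Aggregation propensity is read out as the fold change in how much of each domain remains soluble after acid stress. The custom small-domain libraries were pooled, held at pH 4 and analysed with high-throughput quantitative proteomics. On the log2 scale used, higher values mean more of the domain stayed soluble.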

Sequence | soluble fraction (log2)
HMGDTHKVPGVKGVNVEQAMDMLSRLDLKAVVIDSVYVKDKKLGTVIEQNPVEGSVVKPGRPIYLVVNSRS | -0.0241
HMSVEYRKTLSDGNEYQIVKEKNGYVIKKSLNEGLDYLEPMKNRKYYSSYSQAFKRLNLIAKEVNINEGYD | 0.0946
HMTISDEAMQAGRDAFIQALVAMGAEKNADAMASIEKALSADPGNKEYLATRDLIKKSMGMKK | 0.138
HMQDTTLTSQILRVPSSVNINDLANVLKSLAGKNTVVAPYKAANTIIITGYAPNVRRVLSLANELIPRLDV | -0.0875
HMEAKTSNPDYHARLGLTEGEGNDSALGVSVKAAEGGFGLLFGNKVGSDQLVRFANEDQVWLVNRALS | 0.0693
HMWNLPDPVVRPEGNVTVYENFKNTVEVLNREADLVLKFLQNEFGTSANIDDTGRARLTGSFSTDRVSSVI | -0.529
HMIAALEGKQAMVLDQVSLHHGQVKLGGEVWTARPLNDQDVYEPGDRVTVMRIDGATAVVWRN | -0.0548
HMQHYQFEVDEASSKKRLDVFLSENLPEISRSRLKKLIDEKRVTVNEMSRPAGYKVRVKEKIEFHIPPL | -0.317
HMAMDYEGFKKSVYALTSIDLNAYKERQMKRRIDTLIAKNKYNGYEDYTAAIKKDKALFEEFVNYLTIN | -0.521
HMKPFVVVPIDQVRVGMFIQLDLGWMQHPFPVGSFRVASEAQIDTLRSLDLESVRYLPAKSDPAFQQP | -0.986
HMRAGHDFEALKHIESSLDKHLTDEGIKIKSEKRGAIVARWYQSHVEGREVTDDDVHTWIELFF | -2.2
HMNSQSGKGGVGYILETKYGLNLPPKMREAMGYAAKGVSDHLHKELHPDEIFDLFKKTFENVGQPYS | 0.197
HMSDGIPDLRNLNFLSPQEGDYLNESDRVFGVTINGDGQAYPLRIVNAHEMVNDTLGGEPISLM | -0.34
HMIKLIKKDTNISELKMSKMPWDVMLYGKPYQVVSIKGYVHTIGGRRGENDLWMYPRDESPTYENLIEFQ | 0.279
HMSFVAYEEEKAIGMVRLIGDGGMSFYIKDFAVLPGHQGKGVGQMLLMELQQYLLEHKPADWAVSLE | -1.47
HMFTLDDLQATYDIFERAEQNSDAMLAFQKVITAEGLDFDLTSPQGIVDFFKGAAPTEIYDLYEAS | -0.956
HMTGLFSPTEQTRHSKTGATLYSVKLAERIERNAFQSLKKRAKEHDGYYSSFTRSFLFDTPEDAEAFRGT | -0.0888
HMKTLPADPTVKNFSYTVVDGEIYYRENSIMTQIELSDNAKGRVAGMVELRQIVNELIDQQLND | -1.52
HMQYPSSLDSRAKQSLYDNLERNEILALALDNVIQSNKLDGWRDGGIKERKLRLAINNLLKNDEHTDNIME | -0.284
HMAAINTYQVRKIYAIAGALGMKSRDGDDALHDLVFGMTGKQHISGLTSAEAYDVIAELEKKQ | -0.223
HMKMLEINDNDSVGLKNLKTQYNHNQKVIENFQLEINKVINDGELPDKYLLDGMEKYQKLNMQIMSTIEKQ | 0.221
HMGSATAPDLKGLTYEQAQTKAEDAGYNIEKGEDVYDNDVEKGKVASQDPEAGAEAKEGSVITVNISK | 0.168
HMDNTFEEVKEKLLDLLKERPLTPAEVSKRMEEDKNILAQVIQYLLEEEIIKTEDGMLSKVIG | -0.0649
HMARYSMLEEQLLQLINKHGTMSTPKLVEATGAPRSTVTYQLRKLLESGTIERTQPARSPKQSYRIKS | 0.0957
HMAGDDEIEKIAQDILAAWPDKVAAYQAGNKGLMGLFMGELMKKSQGKANPKVASGIIQKLLD | -0.455
HMTIENTDTFLETLWEQVQRASVDENGIITSRVLIWDEGTKLDEILSWFDKRHSLGALYLQFG | -1.74
HMIHDSAESVVFPFGKYKGYTLAHVIREHPHYTYWIRDNADFSPLWREAVSLALQNRDIGHLNLPHVK | -0.606
HMEFQSIGGKIRIGREREHLTQAELAQKLSVTRQAVSNWERDKTLPDIYMIREIAEIFGLTLDEFMEGAKK | 0.0806
HMNQEIELLLREPDFTSAARLAMAINERFTNSARAIDPTSVKVRMPEGLDQASVDFVARLEDIEMSPDT | -0.587
HMGESEKTLELVSQKDALVDEAFFFVRFQALLESNKTKGAQDLLDQSNHLSAAKLLQANAYLDIV | 0.038
